Measurements as given in patent publication EP0331471A1, “High molecular weight prodrug derivatives of antiinflammatory drugs” (Larsen, Claus Selch, priority 1988, dated 1989).
Where two headings read alike, the source gives them in different places.

Tests used:
[1] = pigs, from a previous study (8), cited from earlier work
[2] = Hydrolysis (release kinetics) of dextran ester prodrugs in aqueous buffer solution; type: physicochemical; conditions: for t(50%) at pH 7.40 and 37°C: 0.05 M phosphate buffer pH 7.40, 37°C; for t(10%) / Arrhenius equation: pH 4.48; for t(10%): time for 10% degradation, calculated from Arrhenius equations; for Ea: hydrolysis at pH 4.48, from slopes of Arrhenius type plots; for Arrhenius equation: kobs in hours⁻¹, T in degrees Kelvin; for kobs: ionic strength 0.5
Method: Release kinetics of the parent drug compounds from the corresponding dextran prodrugs of this invention was carried out in aqueous buffer solution over the pH range 4.5 - 10.0 at 37°C (and in order to determine the activation energies, at pH 4.5, from Arrhenius type plots at 50, 60, 65 and 70°C). […] The 1. order rate constants were derived from the slope of linear plots of log(B∞ -Bt) versus time and for the slow reactions by employing the initial rate method (e.g. (dBt/dt)i = kobsAo), where B∞ and Bt refer to the concentrations of regenerated parent drug at infinity and time t, respectively. (dBt/dt)i repre­sents the initial rate of parent drug formation, whereas kobs and Ao are the pseudo-first-order rate constant and the initial dextran prodrug concentration, respectively. For the fast reactions the initial concentration of the conjugates was in the range 5 - 25 mg/10 ml and for the slow reactions in the range 50 - 250 mg/10 ml. At various times an aliquot of the solutions was withdrawn and analyzed by HPLC for liberated free drug and in some cases for intact dextran prodrug.
A HPLC method was used for the determination of the generated free NSAIDs (the HPLC procedure was further used for determination of the degree of substitution of the polysaccharide prodrugs). […] The flow rate was 1.0 ml/min and the column effluent was monitored at 266 nm. […] Quantitation of the compounds was done by measurements of peak heights in relation to those of standards chromatographed under identical conditions.

[3] = Water solubility of the conjugates (25°C)

Row | Compound | t(50%) at pH 7.40 and 37°C [2] | water-solubility [3] | also measured
1 | COc1ccc2cc([C@H](C)C(=O)O)ccc2c1 [NAPROXEN, (+)-2-(6-methoxy-2-napthyl)propionic acid] |  |  | β ([1]; i.v., 3.6 mg naproxen equivalents): 0.048 h⁻¹; β ([1]; naproxen in plasma, p.o.): 0.049 h⁻¹
2 | O-[2-(4-Isobutylphenyl)propionyl]-dextran T-500 [Example 55] | 141 hours | > 20 % w/v | 
3 | O-[[2-(2,6-dichloroanilino)phenyl]acetyl]-dextran T-10 [Example 60] |  | > 20 % w/v | 
4 | O-[2-(3-Benzoylphenyl)propionyl]-dextran T-10 [Example 51] | 93 hours | > 20 % w/v | 
5 | O-[±)-2-(3-phenoxyphenol)propionyl]-dextran T-10 [Example 57] | 128 hours | > 20 % w/v | 
6 | O-[2-(4-Isobutylphenyl)propionyl]-dextran T-10 [Example 54] | 140 hours | > 20 % w/v | 
7 | O-[±)-2-(3-phenoxyphenol)propionyl]-dextran T-500 [Example 58] | 131 hours | > 20 % w/v | 
8 | O-[[2-(2,6-dichloroanilino)phenyl]acetyl]-dextran T-70 [Example 59] |  | > 20 % w/v | t(10%) ([2]; 5°C): 21.3 years; t(10%) ([2]; 25°C): 0.65 years; Ea [2]: 28.73 kcal/mol; Arrhenius equation [2]: 1n kobs = 37.6 - 14,450/T (n = 5, r = 0.99); kobs ([2]; pH 9.54, 37°C): 3.01 h⁻¹
9 | O-[2-(3-Benzoylphenyl)propionyl]-dextran T-500 [Example 52] | 91 hours | > 20 % w/v | 
10 | O-[±)-2-(3-phenoxyphenol)propionyl]-dextran T-70 [Example 56] | 130 hours | > 20 % w/v | t(10%) ([2]; 5°C): 59.7 years; t(10%) ([2]; 25°C): 2.72 years; Ea [2]: 25.41 kcal/mol; Arrhenius equation [2]: 1n kobs = 30.6 - 12,790/T (n = 5, r = 0.99); kobs ([2]; pH 10.00, 37°C): 1.67 h⁻¹
11 | O-[2-(4-Isobutylphenyl)propionyl]-dextran T-70 [Example 53] | 144 hours |  | t(10%) ([2]; 5°C): 31.5 years; t(10%) ([2]; 25°C): 1.68 years; Ea [2]: 24.14 kcal/mol; Arrhenius equation [2]: 1n kobs =28.9 - 12,140/T (n = 5, r = 0.97)
12 | O-[3-(11β,17-dihydroxy-6α-methylpregna-1,4-diene-3,20-dione-21-oxycarbonyl)propionyl]-dextran T-70 [Example 46] |  | > 20 % w/v | 
13 | O-[3-(11β,17-dihydroxy-pregn-4-ene-3,20-dione-21-oxycarbonyl)propionyl]-dextran T-70 [Example 49] |  | > 20 % w/v | 
14 | O-[3-(11β,17-dihydroxy-6α-methylpregna-1,4-diene-3,20-dione-21-oxycarbonyl)propionyl]-dextran T-500 [Example 48] |  | > 20 % w/v | 
15 | O-[3-(11β,17-dihydroxy-6α-methylpregna-1,4-diene-3,20-dione-21-oxycarbonyl)propionyl]-dextran T-40 [Example 47] |  | > 20 % w/v | 
16 | O-[[2-(2,6-dichloroanilino)phenyl]acetyl]-dextran T-500 [Example 61] |  | > 20 % w/v | 
